# Reference: US9962507B2, “Droplet delivery device for delivery of fluids to the pulmonary system and methods of use” (PNEUMA RESPIRATORY, INC., priority 2016, dated 2018)
# Tests used:
# Type in all cases: physicochemical
# [1] = Anderson Cascade Impactor testing of Albuterol sulfate aerosol from the droplet delivery device (Example B); conditions: Albuterol 0.5%, 28.3 lpm
# Method: Droplet size distribution and related functionality was evaluated for exemplary droplet delivery devices of the disclosure, including Anderson Cascade Impactor testing, total drug mass output rates, total drug respirable mass, delivery efficiencies and reproducibility.
# The study was designed to evaluate device performance of a single Pneuma™ inhaler. A series of three (3) individual tests were conducted with a new disposable drug cartridge for each test. The testing platform utilizes an eight-stage nonviable Anderson Cascade Impactor (Thermo Fisher Scientific; Waltham, Mass.) equipped with a calibrated AALBORG model GFM47 mass flow meter (AALBORG Instruments and Controls; Orangeburg, N.Y.) for flow rate measurement.
# At the conclusion of each test, the mouthpiece was rinsed with mobile phase and collected for HPLC analysis to determine the mass fraction of non-respirable aerosolized drug captured in the mouthpiece via inertial filtering. Following each test, impactor stage samples were extracted and recovered in solvent and analyzed for the active pharmaceutical ingredient (API) using a Dionex Ultimate 3000 nano-HPLC with UV detection (Thermo Scientific, Sunnyvale, Calif.).
# The cascade impactor testing procedure involved fitting the mouthpiece into the Impactor USP throat with a mouthpiece connection seal. […]
# The device was connected to the impactor USB throat, turned on, and actuated ten (10) times for each test. […] The i mouthpiece was rinsed in order to extract drug, and all stages of the cascade impactor were rinsed with a quantity of appropriate solvent (HPLC mobile phase). Extracted samples were placed in labeled and sterile HPLC vials, capped, and analyzed for drug content via HPLC with UV detection. The mouthpiece was extracted of residual drug and analyzed for drug content via HPLC to measure mouthpiece drug deposition in relation to the total collected on the impactor stages.
# All system flow rates and impactor sample flows were monitored throughout each test period. […]
# [2] = Size exclusion chromatography (SEC) stability after aerosol generation with test device
# From the text: Alternately, to determine the stability of active agent after droplet generation, the generated stream of droplets including the active agent may be collected and […] may be employed to monitor for any changes in large molecule aggregation and protein fragment content. Soluble protein aggregates and protein fragment content may be calculated by comparing respective peak area under the SEC-HPLC curve of dispensed protein solutions with controls (solutions remaining in the device reservoir). Drug solutions for testing include Enbrel, (ENBREL® single-use prefilled syringes in 25 mg (0.51 mL of a 50 mg/mL solution of etanercept), and insulin, (Humalog, 200 units/ml, 3 ml […] is performed with a […] 3 μm SEC-2000 LC column 300×7.8 mm, SecurityGuard cartridge kit and SecurityGuard cartridges GFC-2000, 4×3 mm ID. Fifty microliters of Enbrel from the syringe (ENBREL® single-use prefilled syringes in 25 mg/0.51 mL of a 50 mg/mL solution of etanercept) is diluted (4:1) (4 parts, 200 mcl of the mobile phase buffer solution to 1 part, 50 mcl Enbrel from syringe). Fifty microliter of the diluted Enbrel is injected and separation was performed at a flow rate of 1.0 ml/min. The mobile phase buffer system included a PHOS. BUFF. SALINE. […] UV detection is performed at 280 nm. […] Aerosol collection and SEC is performed in a similar fashion as for the Enbrel analysis and aerosol collection. […] Fifty microliters of the collected aerosol spray is injected onto the SEC column for analysis, while 50 mcl of the […] insulin solution is injected onto the SEC column for control samples.
# [3] = Gravimetric analysis of delivered dose per actuation; conditions: average of five doses (actuations)
# Method: Gravimetric analysis was performed by weighing the Enbrel solution filled ampule before and after dosing. The average of five doses (actuations) were analyzed with an average of 4.25 mg+/−0.15 mg. The total delivered dose of Enbrel per actuation is therefore […] per actuation.
# Gravimetric analysis was performed by weighing the Insulin solution filled ampule before and after dosing. The average of five doses (actuations) were analyzed with an average of 5.01 mg+/−0.53 mg. The total delivered dose of Insulin per actuation is therefore 34.8 mcg per actuation.
# [4] = Gel electrophoresis of active agent after droplet generation
# From the text: To determine the stability of active agent after droplet generation, the generated stream of droplets including the active agent is collected and the molecular weight of the active agent is verified using gel electrophoresis.
# [5] = Enbrel control (not aerosolized)
Substance,droplets of an average diameter of less than about 4 μm ([1]; 10 actuations),Fine ([1]; fraction summary table),Throat ([1]; fraction summary table),"Peak Area %, Peak 3, Avg. ([2]; Insulin aerosolized, average of S1 and S2)","Peak Area %, Peak 3 ([2]; Insulin control (not aerosolized))","ejected dose that forms a fragment ([2]; Insulin, fragment elutes at ~25 minutes)","average solution mass per dose (actuation), ampule weighed before and after dosing [3]",change in electrophoretic mobility (molecular weight) of post-aerosol active agent versus control [4],"Peak Area %, Peak 4 [2, 5]","Peak Area %, Peak 5 [2, 5]","dose that leads to formation of molecular fragments ([2]; Enbrel, fragments with elution times of 13 and 25 minutes)"
Albuterol sulfate,over 70%,3.5,4.6,–,–,–,–,–,–,–,–
"Insulin: insulin, Humalog, 200 units/ml, 3 ml kwikpens",–,–,–,2.4905%,0%,2.5%,5.01 mg,–,–,–,–
etanercept [Enbrel],–,–,–,–,–,–,4.25 mg,negligible change,0%,0%,4.6%
